According to the supplement of paper PMC7125110:
± gives the standard error. For part of these data: This sample holds only a part of the variants without activity.

B1: glmS ribozyme (parent)
chain: AUAAAAGCGCCAGAACUACAGAAAUGUAGUUGACGAGGAGGAGGUUUAUCGAAUUUUCGGCGGAUGCCUCCAAA

Key:
Conditions in all cases: with glucosamine-6-phosphate
glucosamine-6-phosphate [1] = variants of: B1; test: kcat; higher = faster cleavage; RNA array
Procedure, shortened: (§1)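 Barcoded ribozyme variants on sequenced MiSeq chips were transcribed in situ by E. coli RNA polymerase and followed at 37 °C through a hybridised Cy3 probe. Glucosamine-6-phosphate at 40 μM to 10 mM in HEPES/KCl/Mg(OAc)2 buffer was flowed in, and tiles were imaged over ~14 h. Signals were normalised to baseline and to non-cleaving reference variants, and per-tile medians were fit to one- or two-exponential decays to give kobs. Weighted Michaelis–Menten fits across concentrations gave kcat and KM.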

glucosamine-6-phosphate [2] = variants of: B1; test: KM; higher = weaker cofactor use; RNA array
Procedure, shortened: as §1

glucosamine-6-phosphate [3] = variants of: B1; test: self-cleavage kobs at 640 uM GlcN6P; higher = faster cleavage; RNA array
Procedure, shortened: as §1

glucosamine-6-phosphate [4] = variants of: B1; test: self-cleavage kobs at 2500 uM GlcN6P; higher = faster cleavage; RNA array
Procedure, shortened: as §1

glucosamine-6-phosphate [5] = variants of: B1; test: self-cleavage kobs at 10000 uM GlcN6P; higher = faster cleavage; RNA array
Procedure, shortened: as §1

glucosamine-6-phosphate [6] = variants of: B1; test: self-cleavage kobs at 40 uM GlcN6P; higher = faster cleavage; RNA array
Procedure, shortened: as §1

glucosamine-6-phosphate [7] = variants of: B1; test: self-cleavage kobs at 160 uM GlcN6P; higher = faster cleavage; RNA array
Procedure, shortened: as §1

Variant | kcat (glucosamine-6-phosphate [1]) | KM (glucosamine-6-phosphate [2]) | self-cleavage kobs at 640 uM GlcN6P (glucosamine-6-phosphate [3]) | self-cleavage kobs at 2500 uM GlcN6P (glucosamine-6-phosphate [4]) | self-cleavage kobs at 10000 uM GlcN6P (glucosamine-6-phosphate [5]) | self-cleavage kobs at 40 uM GlcN6P (glucosamine-6-phosphate [6]) | self-cleavage kobs at 160 uM GlcN6P (glucosamine-6-phosphate [7])
C16U A48C | 0.000297 ± 6.4e-05 s⁻¹ | 3910 ± 1700 µM | 3.07e-05 ± 1.2e-05 s⁻¹ | 0.000142 ± 2.4e-05 s⁻¹ | 0.000203 ± 3.1e-05 s⁻¹ | – | –
G44A C67A | 0.0103 ± 0.0048 s⁻¹ | – | 0.00141 ± 0.00018 s⁻¹ | 0.00541 ± 0.00076 s⁻¹ | 0.00737 ± 0.0013 s⁻¹ | 0.00024 ± 4e-05 s⁻¹ | 0.000422 ± 0.00011 s⁻¹
A6U A15U G63U G66A | 1.95e-05 ± 6.5e-06 s⁻¹ | – | – | – | – | – | –
G43A C71U | < 1e-05 s⁻¹ | – | – | – | – | < 1e-05 s⁻¹ | –
A14U U31G | 0.00512 ± 0.0017 s⁻¹ | 2230 ± 1100 µM | 0.00115 ± 0.0003 s⁻¹ | 0.00273 ± 0.0005 s⁻¹ | 0.00424 ± 0.0007 s⁻¹ | 0.000142 ± 2.1e-05 s⁻¹ | 0.000241 ± 5.5e-05 s⁻¹
U55C C71G | 0.000144 ± 9.8e-06 s⁻¹ | 1810 ± 300 µM | 3.46e-05 ± 9.7e-06 s⁻¹ | 8.92e-05 ± 1.3e-05 s⁻¹ | 0.000118 ± 1.9e-05 s⁻¹ | – | –
A33U A52U | 1.29e-05 ± 2.5e-06 s⁻¹ | 8300 ± 3400 µM | – | – | – | – | –
A36C U49G | 0.00221 ± 0.00064 s⁻¹ | – | 0.000416 ± 0.00011 s⁻¹ | 0.000851 ± 0.00021 s⁻¹ | 0.00186 ± 0.00031 s⁻¹ | 6.21e-05 ± 2.5e-05 s⁻¹ | –
A33U U47C | 3.28e-05 ± 1.2e-05 s⁻¹ | – | – | – | 3.01e-05 ± 1.1e-05 s⁻¹ | < 1e-05 s⁻¹ | –
U46G U55A | 0.0163 ± 0.0061 s⁻¹ | – | 0.0028 ± 0.00069 s⁻¹ | 0.00456 ± 0.0013 s⁻¹ | 0.0133 ± 0.0027 s⁻¹ | 0.000166 ± 3.9e-05 s⁻¹ | –
A39C U57A | 2.13e-05 ± 6e-06 s⁻¹ | – | – | 2.6e-05 ± 1.3e-05 s⁻¹ | – | < 1e-05 s⁻¹ | –
A6C A12U | 0.000292 ± 1.8e-05 s⁻¹ | 2560 ± 310 µM | 5.62e-05 ± 7.4e-06 s⁻¹ | 0.000157 ± 1.8e-05 s⁻¹ | 0.000227 ± 2.1e-05 s⁻¹ | – | –
A15G G40A | 0.0072 ± 0.0015 s⁻¹ | 1290 ± 400 µM | 0.00207 ± 0.00049 s⁻¹ | 0.00475 ± 0.00096 s⁻¹ | 0.00713 ± 0.002 s⁻¹ | 0.000316 ± 8.2e-05 s⁻¹ | 0.000754 ± 0.00016 s⁻¹
A15U C16A | 0.00121 ± 9.4e-05 s⁻¹ | 2740 ± 310 µM | 0.000244 ± 2.2e-05 s⁻¹ | 0.000544 ± 7e-05 s⁻¹ | 0.000959 ± 9.8e-05 s⁻¹ | – | 6.19e-05 ± 8.7e-06 s⁻¹
G41A U55A | 6.65e-05 ± 1.1e-05 s⁻¹ | – | 6.66e-05 ± 1.1e-05 s⁻¹ | 5.75e-05 ± 1.2e-05 s⁻¹ | – | – | 4.67e-05 ± 1.4e-05 s⁻¹
U47G A52C | 1.4e-05 ± 1.8e-06 s⁻¹ | – | – | – | – | – | –
G59C C67G | < 1e-05 s⁻¹ | – | – | – | – | – | –
U46A U54C | 0.00402 ± 0.0012 s⁻¹ | 3310 ± 1300 µM | 0.000982 ± 0.00017 s⁻¹ | 0.00157 ± 0.00051 s⁻¹ | 0.00295 ± 0.00051 s⁻¹ | 4.31e-05 ± 1.1e-05 s⁻¹ | 0.000153 ± 3.9e-05 s⁻¹
